Consider 11 molecules from patent publication US20230192839A1 (published 2023).

Assay [1] has as its target T1, human CD33 antigen (human, UniProt P20138 18-259, limits assumed).
T1 construct: whole entry named; also called Siglec-3
Description: SPR (Biacore T200), 37 C, scFv-Fc, 0 uM MTX. On the procedure: (§1) All binding kinetics analysis was performed on label-free Biacore surface plasmon biosensors (Biacore T200™ from GE Life Sciences) at 37° C. in 10 mM Hepes pH 7.4, 150 mM NaCl, 0.05% Tween-20 (HBST+), with or without 10 µM MTX. The Biacore data were processed in Biacore T200 Evaluation Software, and the data were double-referenced (Myszka, 1999, J Mol Recognit 12(5):279-284) and fit globally to a simple Langmuir with mass transport model to determine the equilibrium dissociation constant, KD, from the ratio of the kinetic rate constants (KD = koff/kₒₙ). In some cases the binding of antigen was very low (or not detectable) in the presence of 10 µM MTX and as a result kinetic rate constants could not be accurately determined. In these cases, a KD (or KD limit) was estimated based on the binding response at the highest analyte concentration tested or based on the typical limit of detection for a Biacore T200.

Assay [2] concerns the target T1, human CD33 antigen. Description: SPR (Biacore T200), 37 C; KD at 10 uM MTX / KD at 0 uM MTX. Here is the method: as §1
(SPR reads the build-up and loss of mass on a sensor chip optically.)

Assay [3] concerns the target T1, human CD33 antigen. Kind of assay: SPR (Biacore T200), 37 C, scFv-Fc, 10 uM MTX. Here is the method: as §1
“*”: For interactions where kₒₙ and koff are reported, the KD was calculated using koff/kₒₙ.

T1 sequence (P20138 18-259 limits assumed): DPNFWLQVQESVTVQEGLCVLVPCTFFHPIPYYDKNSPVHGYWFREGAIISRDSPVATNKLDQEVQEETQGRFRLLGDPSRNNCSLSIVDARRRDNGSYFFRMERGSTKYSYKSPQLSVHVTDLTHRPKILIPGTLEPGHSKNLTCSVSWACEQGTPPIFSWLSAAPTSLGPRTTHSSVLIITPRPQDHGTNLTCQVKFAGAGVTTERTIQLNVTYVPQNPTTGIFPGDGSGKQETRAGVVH

B1: P02_B03 scFv-Fc fusion (scFv, V domains shown)
VH: QVQLVESGGGLVQAGGSLRLSCAASRRSSRSWAMHWVRQAPGKGLEWVAVISYDGRLKYYADSVKGRFTISRDNAEYLVYLQMNSLRAEDTAVYYCAADQDVGSVGNYYGNGMDVWGQGTLVTVSS
VL: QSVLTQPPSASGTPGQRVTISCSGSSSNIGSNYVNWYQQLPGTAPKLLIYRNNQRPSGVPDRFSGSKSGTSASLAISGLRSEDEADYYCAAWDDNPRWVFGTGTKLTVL
notes: Tested as scFv-Fc fusion
A word on the Kd: it is the equilibrium constant for the complex coming apart. Higher therefore signals a looser complex. A word on the koff: it is a measure of how fast the partners let go of each other. In general, kon refers to a measure of how fast the partners come together. The low end stands for slow association, the high end for fast association. B1: in the assay with human CD33 antigen [1], binding was put at a Kd of 170 nM, the koff came out at 0.023 s⁻¹ and the kon amounted to 140000 M⁻¹ s⁻¹. Moreover, the “Ratio: KD with MTX / KD without MTX” value in the assay with human CD33 antigen [2] was above 2.

B2: P02_E08 scFv-Fc fusion (scFv, V domains shown)
VH: QVQLVESGGGLVQAGGSLRLSCAASRRSSRSWAMHWVRQAPGKGLEWVAVISYDGRLKYYADSVKGRFTISRDNAEYLVYLQMNSLRAEDTAVYYCAASDYDGGGLFDLWGQGTLVTVSS
VL: QSVLTQPPSASGTPGQRVTISCSGSNSNIGDNYVHWYQQLPGTAPKLLIYMNNQRPSGVPDRFSGSKSGTSASLAISGLRSEDEADYYCATWDDSLSGVVFGTGTKLTVL
notes: Tested as scFv-Fc fusion
In the case of B2, in the assay with human CD33 antigen [1], binding was characterised by a dissociation constant (Kd) of 211 nM, the koff worked out at 0.01 s⁻¹ and the kon worked out at 47000 M⁻¹ s⁻¹. The “Ratio: KD with MTX / KD without MTX” value with human CD33 antigen [2] is above 3.4.

B3: P02_D08 scFv-Fc fusion (scFv, V domains shown)
VH: QVQLVESGGGLVQAGGSLRLSCAASRRSSRSWAMHWVRQAPGKGLEWVAVISYDGRLKYYADSVKGRFTISRDNAEYLVYLQMNSLRAEDTAVYYCAAERGDGLDGNVGLDIWGQGTLVTVSS
VL: DIQMTQSPSSLSASVGDRVTITCRASQSISKYLNWYQQKPGKAPKLLIYGASTLQSGVPSRFSGSGSGTDFTLTISSLQPEDFATYYCQQSYSSGTFGQGTKVEIK
notes: Tested as scFv-Fc fusion
Regarding B3, in the assay with human CD33 antigen [3], the Kd stood at 705 nM, the koff was determined as 0.062 s⁻¹ and the kon amounted to 88000 M⁻¹ s⁻¹. For the same molecule, in the assay with human CD33 antigen [1], the Kd came out at 100 nM, the koff came out at 0.0061 s⁻¹ and the kon worked out at 61000 M⁻¹ s⁻¹. The “Ratio: KD with MTX / KD without MTX” value in the assay with human CD33 antigen [2] was determined as 7.1.

B4: P03_H04 scFv-Fc fusion (scFv, V domains shown)
VH: QVQLVESGGGLVQAGGSLRLSCAASRRSSRSWAMHWVRQAPGKGLEWVAVISYDGRLKYYADSVKGRFTISRDNAEYLVYLQMNSLRAEDTAVYYCAADPHDGYGGGPGFDYWGQGTLVTVSS
VL: QSVLTQPPSASGTPGQRVTISCSGSSSNIGSNYVYWYQQLPGTAPKLLIYRSNQRPSGVPDRFSGSKSGTSASLAISGLRSEDEADYYCAAWDDTLSAVVFGTGTKLTVL
notes: Tested as scFv-Fc fusion
In the assay with human CD33 antigen [1], B4 displayed a Kd of 366 nM, a koff of 0.026 s⁻¹ and a kon of 72000 M⁻¹ s⁻¹. The “Ratio: KD with MTX / KD without MTX” value in the assay with human CD33 antigen [2] is above 43.

B5: P02_A10 scFv-Fc fusion (scFv, V domains shown)
VH: QVQLVESGGGLVQAGGSLRLSCAASRRSSRSWAMHWVRQAPGKGLEWVAVISYDGRLKYYADSVKGRFTISRDNAEYLVYLQMNSLRAEDTAVYYCAAESEWDTGGFDVWGQGTLVTVSS
VL: DIQMTQSPSSLSASVGDRVTITCRASQSIGSYLNWYQQKPGKAPKLLIYSSSNLQSGVPSRFSGSGSGTDFTLTISSLQPEDFATYYCQQSYTSGTFGQGTKVEIK
notes: Tested as scFv-Fc fusion
In the assay with human CD33 antigen [1], B5 returned a Kd of 523 nM, a koff of 0.044 s⁻¹ and a kon of 84000 M⁻¹ s⁻¹. The “Ratio: KD with MTX / KD without MTX” value with human CD33 antigen [2] is above 17.3.

B6: P03_G12 scFv-Fc fusion (scFv, V domains shown)
VH: QVQLVESGGGLVQAGGSLRLSCAASRRSSRSWAMHWVRQAPGKGLEWVAVISYDGRLKYYADSVKGRFTISRDNAEYLVYLQMNSLRAEDTAVYYCAADPTEGWSYLDYWGQGTLVTVSS
VL: DIQMTQSPSSLSASVGDRVTITCRASQGISSYLNWYQQKPGKAPKLLIYGASRLQSGVPSRFSGSGSGTDFTLTISSLQPEDFATYYCQQGYSSGTFGQGTKVEIK
notes: Tested as scFv-Fc fusion
As to B6, in the assay with human CD33 antigen [1], the Kd is 132 nM, the koff amounted to 0.0094 s⁻¹ and the kon was 71000 M⁻¹ s⁻¹. Also, in the assay with human CD33 antigen [2], the “Ratio: KD with MTX / KD without MTX” value was above 83.

B7: P02_C02 scFv-Fc fusion (scFv, V domains shown)
VH: QVQLVESGGGLVQAGGSLRLSCAASRRSSRSWAMHWVRQAPGKGLEWVAVISYDGRLKYYADSVKGRFTISRDNAEYLVYLQMNSLRAEDTAVYYCAAEGGMGLDPWGQGTLVTVSS
VL: DIQMTQSPSSLSASVGDRVTITCRASQTISSYLNWYQQKPGKAPKLLIYAASNLHSGVPSRFSGSGSGTDFTLTISSLQPEDFATYYCQQSYSSGTFGQGTKVEIK
notes: Tested as scFv-Fc fusion
For B7, in the assay with human CD33 antigen [3], the Kd is 221 nM, the koff came to 0.025 s⁻¹ and the kon is 110000 M⁻¹ s⁻¹. Besides, in the assay with human CD33 antigen [1], the Kd amounted to 213 nM, the koff amounted to 0.02 s⁻¹ and the on-rate constant (kon) stood at 92000 M⁻¹ s⁻¹. For the same molecule, in the assay with human CD33 antigen [2], the “Ratio: KD with MTX / KD without MTX” value came to 1.

B8: P01_B02 scFv-Fc fusion (scFv, V domains shown)
VH: QVQLVESGGGLVQAGGSLRLSCAASRRSSRSWAMHWVRQAPGKGLEWVAVISYDGRLKYYADSVKGRFTISRDNAEYLVYLQMNSLRAEDTAVYYCAAADWYSGGGDALDIWGQGTLVTVSS
VL: DIQMTQSPSSLSASVGDRVTITCRASQTIYNYLNWYQQKPGKAPKLLIYGASNLQSGVPSRFSGSGSGTDFTLTISSLQPEDFATYYCQQTYSSPTFGQGTKVEIK
notes: Tested as scFv-Fc fusion
With B8, in the assay with human CD33 antigen [3], the Kd came to 1.6 nM, the koff was 0.0006 s⁻¹ and the kon amounted to 390000 M⁻¹ s⁻¹. In the assay with human CD33 antigen [1], this molecule yielded a Kd of 19 nM, a koff of 0.0026 s⁻¹ and a kon of 140000 M⁻¹ s⁻¹. In the assay with human CD33 antigen [2], the “Ratio: KD with MTX / KD without MTX” value was 0.1.

B9: P01_F05 scFv-Fc fusion (scFv, V domains shown)
VH: QVQLVESGGGLVQAGGSLRLSCAASRRSSRSWAMHWVRQAPGKGLEWVAVISYDGRLKYYADSVKGRFTISRDNAEYLVYLQMNSLRAEDTAVYYCAAGPDRWAGYDAFDVWGQGTLVTVSS
VL: DIQMTQSPSSLSASVGDRVTITCRASQTINTHLNWYQQKPGKAPKLLIYGASNLQGGVPSRFSGSGSGTDFTLTISSLQPEDFATYYCQQSYSTPLTFGQGTKVEIK
notes: Tested as scFv-Fc fusion
In the assay with human CD33 antigen [1], B9 registered a Kd of 143 nM, a koff of 0.01 s⁻¹ and a kon of 71000 M⁻¹ s⁻¹. For the same molecule, the “Ratio: KD with MTX / KD without MTX” value with human CD33 antigen [2] was above 92.5.

B10: P01_C05 scFv-Fc fusion (scFv, V domains shown)
VH: QVQLVESGGGLVQAGGSLRLSCAASRRSSRSWAMHWVRQAPGKGLEWVAVISYDGRLKYYADSVKGRFTISRDNAEYLVYLQMNSLRAEDTAVYYCAAEQWGTNDGPDGGMDYWGQGTLVTVSS
VL: DIQMTQSPSSLSASVGDRVTITCRASQTIGSHLNWYQQKPGKAPKLLIYGTSNLQSGVPSRFSGSGSGTDFTLTISSLQPEDFATYYCQQSYSSPLTFGQGTKVEIK
notes: Tested as scFv-Fc fusion
In the assay with human CD33 antigen [3], B10 displayed a Kd of 44.7 nM, a koff of 0.0045 s⁻¹ and a kon of 100000 M⁻¹ s⁻¹. In the assay with human CD33 antigen [1], this molecule displayed a Kd of 86 nM, a koff of 0.0066 s⁻¹ and a kon of 76000 M⁻¹ s⁻¹. Moreover, the “Ratio: KD with MTX / KD without MTX” value in the assay with human CD33 antigen [2] came out at 0.5.

B11: P02_D09 scFv-Fc fusion (scFv, V domains shown)
VH: QVQLVESGGGLVQAGGSLRLSCAASRRSSRSWAMHWVRQAPGKGLEWVAVISYDGRLKYYADSVKGRFTISRDNAEYLVYLQMNSLRAEDTAVYYCAAEEGDGGFFDYWGQGTLVTVSS
VL: QSVLTQPPSASGTPGQRVTISCSGSSSNIGSNYVNWYQQLPGTAPKLLIYRNNERPSGVPDRFSGSKSGTSASLAISGLRSEDEADYYCAAWDGSLSGRGVFGTGTKLTVL
notes: Tested as scFv-Fc fusion
For B11, in the assay with human CD33 antigen [1], the Kd came to 456 nM, the koff stood at 0.018 s⁻¹ and the kon was found to be 40000 M⁻¹ s⁻¹. The “Ratio: KD with MTX / KD without MTX” value with human CD33 antigen [2] was above 20.4.
